Data set [1] has as its target T1, GST-PsAGL9 (Paeonia suffruticosa, UniProt V9I0Q3 1-243). Kind of data set: competition; 10x and 20x cold mutant probe did not affect signal; Chemiluminescent EMSA Kit (Beyotime); buffer, salt, pH and temperature not stated. The note with it: protein: recombinant; tags: GST (pGEX-4T-1).
Data set [2] has as its target T1, GST-PsAGL9. The data set is described as follows: EMSA; 10x and 20x cold probe weakened signal; Chemiluminescent EMSA Kit (Beyotime); buffer, salt, pH and temperature not stated. The note with it: protein: recombinant; tags: GST (pGEX-4T-1); label: biotin; blunt. Background: A gel shift assay detects complexes by their altered migration in electrophoresis.
The target of data set [3] is T1, GST-PsAGL9. The data set is described as follows: EMSA; Chemiluminescent EMSA Kit (Beyotime); buffer, salt, pH and temperature not stated. The note with it: protein: recombinant; tags: GST (pGEX-4T-1); label: biotin.

T1 sequence (V9I0Q3 entry or part of it): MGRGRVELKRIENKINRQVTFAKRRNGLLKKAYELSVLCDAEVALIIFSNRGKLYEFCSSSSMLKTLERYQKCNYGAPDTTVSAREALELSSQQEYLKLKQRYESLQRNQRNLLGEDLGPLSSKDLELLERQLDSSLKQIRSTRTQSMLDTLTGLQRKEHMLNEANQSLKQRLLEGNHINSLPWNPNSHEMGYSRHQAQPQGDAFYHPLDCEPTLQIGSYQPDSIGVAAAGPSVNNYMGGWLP

B1: PsCYCD mutant probe (cold-mP) (dsDNA)
DNA 1: TTTGGCCGACCGGGGTTAA
DNA 2: TTAACCCCGGTCGGCCAAA
Turning to B1, the binding result in data set [1] is reported as “no binding”.

B2: PsCYCD CArG probe (dsDNA)
DNA 1: TTTGGCCAATTTTGGTTAA
DNA 2: TTAACCAAAATTGGCCAAA
On to B2, for which the binding result in data set [2] was “binds”.

B3: PsEBB3 CArG probe (dsDNA)
DNA 1: ATGTCCATAATTTAGGCCTA
DNA 2: TAGGCCTAAATTATGGACAT
As to B3, the binding result in data set [3] is “binds”.

The values above are taken from paper PMC11997425, “MADS-domain transcription factor AGAMOUS LIKE-9 participates in the gibberellin pathway to promote bud dormancy release of tree peony”.
